According to patent US20220002426A1 (BIOINVENT INTERNATIONAL, published 2022):
Positions count from the first letter of the chain named. Like-named read-outs stand apart in the source and are kept apart here. Blank lines part the entries; values can stand above or below the binder they belong to.

Columns and labels:
[1] = target: T1, mTNFRII (Sinobioologicals Cat No. 50128 M08H) (mouse, UniProt P25119 23-258, limits assumed); test: ELISA, coated mTNFRII, mTNF-α 2 nM, rabbit anti-mTNF-α and anti-rabbit-HRP
T1 construct: bought
T1 sequence (looked up): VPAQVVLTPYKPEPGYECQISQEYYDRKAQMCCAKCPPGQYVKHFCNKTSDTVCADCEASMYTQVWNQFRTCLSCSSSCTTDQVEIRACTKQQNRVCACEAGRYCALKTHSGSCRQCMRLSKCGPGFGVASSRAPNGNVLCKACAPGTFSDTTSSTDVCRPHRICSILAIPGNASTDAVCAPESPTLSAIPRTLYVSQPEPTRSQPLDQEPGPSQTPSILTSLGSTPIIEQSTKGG
Description: (§1) 96-well plates were coated with hTNFRII (Sinobioologicals Cat nr10414-H08H) or mTNFRII (Sinobioologicals Cat No. 50128 M08H) at 2.5 pmol/well in ELISA coating buffer (0.1 M sodium carbonate pH 9.5) and incubated overnight at 4° C. After washing in ELISA wash buffer (PBS with 0.05% Tween20), the plates were incubated under slow agitation for 1 h in room temperature with n-CoDeR® mAbs at 10 μg/ml (one-dose ELISA) or 33 nM and subsequent 1:2 dilutions (titration ELISA) in block buffer containing 0.45% fish gelatin. […] Thereafter, plates were washed. For the human ELISAs, Streptavidin-HRP (Jackson Cat No. 016-030-084) diluted 1:2000 in block buffer were added and again incubated for 1 h at room temperature followed by washes first in ELISA buffer and then in Tris buffer (pH 9.8). The substrate (Super Signal ELISA Pico from Thermo Scientific Cat. No. 37069) were thereafter diluted according to the manufacturers instruction, added to the wells and incubated in darkness for 10 min before reading in a Tecan Ultra. […] After washing, anti-Rabbit-HRP diluted 1:10 000 in block buffer was added and again incubated for 1 h at room temperature. Substrate adding and reading were performed as above.

[2] = target: T2, recombinant human TNFR2-Fc protein (Sino Biological) (human, UniProt P20333 23-257, limits assumed); test: ELISA, coated TNFR2-Fc
T2 construct: bought; also called human TNFR2 protein; not shown: Fc part of the bought fusion protein; not described
T2 sequence (looked up): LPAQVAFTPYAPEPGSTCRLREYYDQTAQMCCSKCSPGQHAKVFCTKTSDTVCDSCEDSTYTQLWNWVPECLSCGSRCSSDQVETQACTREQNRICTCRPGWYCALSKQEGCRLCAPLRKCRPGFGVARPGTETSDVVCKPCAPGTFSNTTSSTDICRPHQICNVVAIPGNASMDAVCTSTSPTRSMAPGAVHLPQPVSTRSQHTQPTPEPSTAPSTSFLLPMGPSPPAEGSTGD
Description: (§2) 96-well plates (Lumitrac 600 LIA plate, Greiner) were coated overnight at 4° C. with recombinant human or mouse TNFR2-Fc protein (Sino Biological) at 1 pmol/well. After washing, titrated doses of anti-TNFR2 mAbs from 20 μg/ml to 0.1 ng/ml (133 nM to 1 pM) were allowed to bind for 1 hour. Plates were then washed again, and bound antibodies were detected with an anti-human-F(ab)-HRP secondary antibody (Jackson ImmunoResearch) diluted in 50 ng/ml. Super Signal ELISA Pico (Thermo Scientific) was used as substrate and the plates were analyzed using Tecan Ultra Microplate reader.

[3] = target: T3, wild type, full length murine TNFR2 (on cells) (mouse, UniProt P25119 23-474); test: FACS, transfected HEK293 cells
T3 construct: whole, on cells; also called mTNFR2; mouse TNFR2
T3 sequence (looked up): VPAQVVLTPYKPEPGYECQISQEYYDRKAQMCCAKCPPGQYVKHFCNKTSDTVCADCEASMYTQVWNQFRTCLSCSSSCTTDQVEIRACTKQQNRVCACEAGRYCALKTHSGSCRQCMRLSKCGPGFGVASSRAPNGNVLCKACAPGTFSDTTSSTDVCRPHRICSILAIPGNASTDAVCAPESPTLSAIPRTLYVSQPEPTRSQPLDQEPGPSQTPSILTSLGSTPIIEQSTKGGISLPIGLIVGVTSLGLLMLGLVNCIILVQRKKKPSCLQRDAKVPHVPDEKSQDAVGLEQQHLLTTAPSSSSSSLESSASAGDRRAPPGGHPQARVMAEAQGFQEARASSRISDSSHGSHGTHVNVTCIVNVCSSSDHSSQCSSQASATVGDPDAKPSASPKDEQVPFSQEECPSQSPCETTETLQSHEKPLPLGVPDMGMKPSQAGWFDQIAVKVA

[4] = target: T4, wild type, full length human TNFR2 (on cells) (human, UniProt P20333 23-461); test: FACS, activated CD4+ T cells
T4 construct: whole, on cells; also called hTNFR2; TNFRII
T4 sequence (looked up): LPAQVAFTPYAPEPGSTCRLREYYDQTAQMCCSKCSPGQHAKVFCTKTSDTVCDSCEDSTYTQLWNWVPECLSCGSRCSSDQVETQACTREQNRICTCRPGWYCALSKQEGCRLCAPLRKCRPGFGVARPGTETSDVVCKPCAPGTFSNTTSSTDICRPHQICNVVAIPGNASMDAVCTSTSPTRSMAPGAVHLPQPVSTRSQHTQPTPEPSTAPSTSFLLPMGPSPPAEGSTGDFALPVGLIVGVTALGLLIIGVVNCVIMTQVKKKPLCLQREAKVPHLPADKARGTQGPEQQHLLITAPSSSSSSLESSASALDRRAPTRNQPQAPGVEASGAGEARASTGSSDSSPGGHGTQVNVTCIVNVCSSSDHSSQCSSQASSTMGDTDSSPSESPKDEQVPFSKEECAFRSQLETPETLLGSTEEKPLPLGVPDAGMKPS
Description: (§3) The ability and affinity of TNFR2 n-CoDeR® antibodies to bind TNFR2 expressed on cells were obtained using in vitro activated CD4⁺ T cells. Human CD4⁺ T cells were stimulated with 50 ng/ml rhIL-2 (R&D systems) and Dynabeads® T-Activator CD3/CD28 for T-Cell Expansion and Activation (Gibco) 2-3 days at 37 degrees. […] Cells were then incubated with an APC conjugated a-human IgG secondary ab (Jackson) followed by analysis by flow cytometry (FACSVerse, BD).

[5] = target: T5, hTNFRII (Sinobioologicals Cat nr10414-H08H) (human, UniProt P20333 23-257); test: blocking ELISA, coated hTNFRII, competitor hTNF-α-bio 5 nM
T5 construct: bought; also called immobilized TNFR2
T5 sequence (looked up): T2 sequence (looked up)
Description: as §1

[6] = target: T6, Cynomolgus TNFR2 (on cynomolgus CD4+ T cells) (cynomolgus monkey (Macaca fascicularis), UniProt A0A2K5VET2 132-571); test: FACS, stimulated cynomolgus CD4+ T cells, % over isotype
T6 construct: whole, on cells; also called cmTNFR2; cynoTNFR2
T6 sequence: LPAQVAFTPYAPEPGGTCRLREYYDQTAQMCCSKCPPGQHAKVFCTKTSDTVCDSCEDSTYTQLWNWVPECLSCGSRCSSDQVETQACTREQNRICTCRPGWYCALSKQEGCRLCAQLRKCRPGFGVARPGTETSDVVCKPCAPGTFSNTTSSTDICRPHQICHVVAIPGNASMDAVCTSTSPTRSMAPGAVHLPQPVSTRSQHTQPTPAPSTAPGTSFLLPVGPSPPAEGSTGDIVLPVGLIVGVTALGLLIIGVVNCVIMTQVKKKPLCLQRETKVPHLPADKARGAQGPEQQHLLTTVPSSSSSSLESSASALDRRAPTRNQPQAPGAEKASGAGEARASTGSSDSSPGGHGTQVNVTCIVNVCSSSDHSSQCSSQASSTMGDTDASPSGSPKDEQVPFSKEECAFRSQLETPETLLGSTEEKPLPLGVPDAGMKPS
Description: To validate the cross-reactivity of TNFR2 antibodies to Cynomolgus, Cynomolgus CD4⁺ T cells were stimulated 2 days with 50 ng/ml PMA (Sigma) and 100 ng/ml lonomycin (Sigma). Cells were incubated with TNFR2 specific n-CoDeR® antibodies at 3 different concentrations (0.1, 1 and 10 μg/ml) and then incubated with an APC conjugated secondary a-human IgG reagent (Jackson).

[7] = target: T4, wild type, full length human TNFR2 (on …); test: FACS, activated CD4+ T cells; remark: listed apart in the source
Description: as §3

[8] = target: T3, wild type, full length murine TNFR2 (on …); test: FACS, activated mouse CD4+ T cells
[9] = target: T7, recombinant mouse TNFR2-Fc protein (Sino Biological) (mouse, UniProt P25119 23-258, limits assumed); test: ELISA, coated TNFR2-Fc
T7 construct: bought; also called mTNFR2 protein; mTNFR2; not shown: Fc part of the bought fusion protein; not described
T7 sequence (looked up): T1 sequence (looked up)
Description: as §2

B3: 001-G10 (antibody, V domains shown)
VH: EVQLLESGGGLVQPGGSLRLSCAASGFTFSAYGMHWVRQAPGKGLEWVAVVSYDGREKHYADSVKGRFTISRDNSKNTLYLQMNSLRAEDTAVYYCARSDGGYDSDSGYYWGQGTLVTVSS
VL: QSVLTQPPSASGTPGQRVTISCSGSTSNIGSNFVYWYQQLPGTAPKLLIYDNNKRPSGVPDRFSGSKSGTSASLAISGLRSEDEADYYCSSYAYSDNILFGGGTKLTVLG
notes: IgG
EC50 [2]: 0.29 nM
EC50 [5]: 1.6 nM
binding result [3]: no binding
EC50 [4]: 3.3 nM

B5: 001-G04 (antibody, V domains shown)
VH: EVQLLESGGGLVQPGGSLRLSCAASGFTFNTYSMNWVRQAPGKGLEWVSVLYSDDDTHYADSVKGRFTISRDNSKNTLYLQMNSLRAEDTAVYYCARDCGGDCHSGDDAFDIWGQGTLVTVSS
VL: not shown
notes: IgG
EC50 [2]: 1.7 nM
EC50 [5]: 3.2 nM
EC50 [4]: 18 nM
binding result [6]: no binding (tested: 10 µg/ml)

B6: 001-C03 (antibody, V domains shown)
VH: EVQLLESGGGLVQPGGSLRLSCAASGFTFSNAWMSWVRQAPGKGLEWVSAISVSGINTYYADSVKGRFTISRDNSKNTLYLQMNSLRAEDTAVYYCARDTGSLGVDYWGQGTLVTVSS
VL: QSVLTQPPSASGTPGQRVTISCSGSSSNIGSNTVNWYQQLPGTAPKLLIYRNNQRPSGVPDRFSGSKSGTSASLAISGLRSEDEADYYCQSYDSSLSISVFGGGTKLTVLG
notes: IgG; also called 1-003; 001-0O3
EC50 [2]: 0.75 nM
EC50 [4]: 53 nM
EC50 [7]: 52.7 nM

B7: 005-A05 (antibody, V domains shown)
VH: EVQLLESGGGLVQPGGSLRLSCAASGFTFSSYAMSWVRQAPGKGLEWVSTIIGSGANTWYADSVKGRFTISRDNSKNTLYLQMNSLRAEDTAVYYCARHEGYYYYGMDVWGQGTLVTVSS
VL: QSVLTQPPSASGTPGQRVTISCTGSSSNIGAGYVVHWYQQLPGTAPKLLIYGNSNRPSGVPDRFSGSKSGTSASLAISGLRSEDEADYYCAAWDDSLNGRVFGGGTKLTVLG
notes: also called 5-A05 (mouse)
EC50 [8]: 0.11 nM
EC50 [9]: 1.4 nM

B8: 004-H02 (antibody, V domains shown)
VH: EVQLLESGGGLVQPGGSLRLSCAASGFTFDDYGMSWVRQAPGKGLEWVSTIYSGDNAYYGASVRGRFTISRDNSKNTLYLQMNSLRAEDTAVYYCARVYSSSWRKRAFDIWGQGTLVTVSS
VL: not shown
notes: IgG
EC50 [2]: 0.2 nM
EC50 [5]: 0.4 nM
EC50 [4]: 0.59 nM
EC50 [7]: 0.6 nM

Results, then the binder that gave them:

binding result [1]: binds
B1: mTNF-α (Gibco Cat. No. PMC3014) (ligand, mouse, UniProt P06804 80-235, looked up)
chain: LRSSSQNSSDKPVAHVVANHQVEEQLEWLSQRANALLANGMDLKDNQLVVPADGLYLVYSQVLFKGQGCPDYVLLTHTVSRFAISYQEKVNLLSAVKSPCPKDTPEGAELKPWYEPIYLGGVFQLEKGDQLSAEVNLPKYLDFAESGQVYFGVIAL

EC50 [2]: 0.15 nM
binding result [3]: no binding
EC50 [4]: 2.5 nM
B2: 001-F06 (antibody, V domains shown)
VH: EVQLLESGGGLVQPGGSLRLSCAASGFTFSSYAMHWVRQAPGKGLEWVSAISGGATTTYYADSVKGRFTISRDNSKNTLYLQMNSLRAEDTAVYYCAKGGTGDPYYFDYWGQGTLVTVSS
VL: B7 VL with V34D, G52R, S54N, N55Q, W93R, S96G, N98S, R100P
notes: IgG

EC50 [2]: 0.17 nM
EC50 [5]: 0.3 nM
binding result [3]: no binding
EC50 [4]: 1.2 nM
B4: 005-B08 (antibody, V domains shown)
VH: EVQLLESGGGLVQPGGSLRLSCAASGFTFSDYYMSWIRQAPGKGLEWVAIISYDGGGKYFADPVKGRFTISRDNSKNTLYLQMNSLRAEDTAVYYCARYYGDGGFDPWGQGTLVTVSS
VL: not shown
notes: IgG
